Experimental data reported in article PMC11813584, “An odorant-binding protein functions in fire ant social immunity interfacing with innate immunity” (Open Biology, 2025).

Molecular target: SiOBP15, purified, His-tag removed (Solenopsis invicta)
Test: SPR; open SPR; SiOBP15 coupled to a COOH chip until saturation, SiApoLp-III or SiFABP5 titrated as analyte; one-to-one model (TraceDrawer)

“SiFABP5, purified, His-tag removed (natural protein)” showed a Kd of 1.1 µM.
